Source: the RNAGym collection of RNA variant scans (doi:10.7554/elife.90254)

B1: LINE1-mini (parent)
chain: GGCAGAGCUCAACACAGCGUGGCAAAGUGGCUGUGGCUAGACUGCC

Variants of: B1
Assay: self-cleavage, relative activity (ratio to wild type); higher = more cleavage; in vitro, sequencing; the parent is a self-cleaving ribozyme
Work on A16U G36A yielded a self-cleavage of 0.06.
A16U G36U gave a self-cleavage of 0.06.
With A16U G36C the self-cleavage was 0.07.
In the case of A16G G17U, the self-cleavage is reported as 0.32.
Work on A16G G17A yielded a self-cleavage of 0.15.
With A16G G17C the self-cleavage was 0.31.
In the case of A16G A25C, the self-cleavage is reported as 0.06.
A16G A25G gave a self-cleavage of 0.04.
Work on A16G A25U yielded a self-cleavage of 0.31.
In the case of G17A C37A, the self-cleavage is reported as 0.05.
With A16U U28A the self-cleavage was 0.26.
With A16U U28G the self-cleavage was 0.22.
Variant A16U U28C has a self-cleavage of 0.55.
With A16U A41G the self-cleavage was 0.07.
Variant A16U A41C has a self-cleavage of 0.05.
In the case of A16U A41U, the self-cleavage is reported as 0.07.
In the case of A16U C31U, the self-cleavage is reported as 0.03.
A16U C31A gave a self-cleavage of 0.21.
Work on A16U C31G yielded a self-cleavage of 0.04.
For A16U U20A, the self-cleavage was 0.06.
For A16U U20G, the self-cleavage was 0.03.
For A16U U20C, the self-cleavage was 0.26.
In the case of A16U A24U, the self-cleavage is reported as 0.11.
In the case of A16U A24C, the self-cleavage is reported as 0.1.
In the case of A16U A24G, the self-cleavage is reported as 0.1.
In the case of A16U C37U, the self-cleavage is reported as 0.06.
Work on A16U C37G yielded a self-cleavage of 0.07.
In the case of A16U C37A, the self-cleavage is reported as 0.11.
A16C G29C showed a self-cleavage of 0.77.
Variant A16C G29A has a self-cleavage of 0.57.
A16C G29U gave a self-cleavage of 0.55.
A16C A24C gave a self-cleavage of 0.07.
Variant A16C A24G has a self-cleavage of 0.04.
With A16C A24U the self-cleavage was 0.11.
A16U C23A showed a self-cleavage of 0.19.
A16U C23G gave a self-cleavage of 0.1.
For A16U C23U, the self-cleavage was 0.23.
C15U G35C showed a self-cleavage of 0.14.
Work on C15U G35A yielded a self-cleavage of 0.09.
In the case of C15U G35U, the self-cleavage is reported as 0.13.
Variant A16U G44C has a self-cleavage of 0.03.
For A16U G44U, the self-cleavage was 0.03.
In the case of A16U G44A, the self-cleavage is reported as 0.05.
Work on A16U U32A yielded a self-cleavage of 0.55.
Variant A16U U32C has a self-cleavage of 0.18.
A16U U32G showed a self-cleavage of 0.29.
Work on G17A C23G yielded a self-cleavage of 0.13.
For G17A C23U, the self-cleavage was 0.22.
With G17A C23A the self-cleavage was 0.29.
For A16C U28C, the self-cleavage was 0.03.
Work on A16C U28A yielded a self-cleavage of 0.18.
A16C U28G showed a self-cleavage of 0.07.
A16C U32G showed a self-cleavage of 0.4.
In the case of A16C U32A, the self-cleavage is reported as 0.13.
Work on A16C U32C yielded a self-cleavage of 0.09.
Work on A16U A26C yielded a self-cleavage of 0.06.
For A16U A26U, the self-cleavage was 0.13.
A16U A26G gave a self-cleavage of 0.06.
G17A A41G showed a self-cleavage of 0.07.
In the case of G17A A41C, the self-cleavage is reported as 0.04.
Variant G17A A41U has a self-cleavage of 0.12.
Work on G17A A26C yielded a self-cleavage of 0.34.
G17A A26U gave a self-cleavage of 0.21.
Variant G17A A26G has a self-cleavage of 0.1.
For C15U U28A, the self-cleavage was 1.35.
With C15U U28G the self-cleavage was 0.31.
Work on C15U U28C yielded a self-cleavage of 1.52.
G17A A24U showed a self-cleavage of 0.38.
Work on G17A A24G yielded a self-cleavage of 0.18.
With G17A A24C the self-cleavage was 0.06.
A16G C23A gave a self-cleavage of 0.56.
Variant A16G C23U has a self-cleavage of 0.82.
A16G C23G gave a self-cleavage of 0.64.
In the case of A16C A26U, the self-cleavage is reported as 0.05.
A16C A26C showed a self-cleavage of 0.04.
In the case of A16C A26G, the self-cleavage is reported as 0.02.
Variant A16U C45U has a self-cleavage of 0.11.
A16U C45G gave a self-cleavage of 0.13.
With A16U C45A the self-cleavage was 0.1.
A16C A25U showed a self-cleavage of 0.08.
Variant A16C A25C has a self-cleavage of 0.04.
For A16C A25G, the self-cleavage was 0.07.
Work on A16C G44C yielded a self-cleavage of 0.02.
